Target: the molecule itself
Test: NMR (preliminary experiments); highly purified P protein at 25°C

B1: Thermotoga maritima RNase P protein (natural protein)
chain: TESFTRRERLRLRRDFLLIFKEGKSLQNEYFVVLFRKNGLDYSRLGIVVKRKFGKATRRNKLKRWVREIFRRNKGVIPKGFDIVVIPRKKLSEEFERVDFWTVREKLLNLLKRIEG
modifications: 15N, 13C-labeled
notes: RNase P protein component (rnpA gene) of Thermotoga maritima; numbering corresponds to UniProtKB Q9X1H4; Exists as monomer and dimer in equilibrium in solution; the preparation follows Zeng et al., 2018; also called T. maritima RNase P protein; source: E. coli BL21 Gold, M9 minimal media, purified (thrombin-treated lysate, denaturation-renaturation, 15S cation exchange); not shown: GST, …
Q: Which “stoichiometry N” value does the source give for B1 here?
A: 2

Source: paper PMC8447495, “Dissecting Monomer-Dimer Equilibrium of an RNase P Protein Provides Insight Into the Synergistic Flexibility of 5’ Leader Pre-tRNA Recognition” (Frontiers in Molecular Biosciences, 2021)
